Measured values: patent US10400230B2, “Protease variants and polynucleotides encoding same” (NOVOZYMES A/S, priority 2014, dated 2019)

B1: S27K, S173P, G174K, S175P, F180Y, L184F, Q198E, N199K, T297P: TY145 protease (SEQ ID NO 3) variant with these substitutions (protein, listed as Bacillus sp.)
chain: AVPSTQTPWGIKSIYNDQSITKTTGGKGIKVAVLDTGVYTSHLDLAGSAEQCKDFTQSNPLVDGSCTDRQGHGTHVAGTVLAHGGSNGQGVYGVAPQAKLWAYKVLGDNGSGYSDDIAAAIRHVADEASRTGSKVVINMSLGSSAKDSLIASAVDYAYGKGVLIVAAAGNSGPKPNTIGYPGGFVNAVAVAALENVQEKGTYRVADFSSRGNPATAGDYIIQERDIEVSAPGASVESTWYTGGYNTISGTSMATPHVAGLAAKIWSANTSLSHSQLRTELQNRAKVYDIKGGIGAGPGDDYASGFGYPRVK
B2: S173P, S175P, F180Y, L184W: TY145 protease (SEQ ID NO 3) variant with these substitutions (protein, listed as Bacillus sp.)
chain: AVPSTQTPWGIKSIYNDQSITKTTGGSGIKVAVLDTGVYTSHLDLAGSAEQCKDFTQSNPLVDGSCTDRQGHGTHVAGTVLAHGGSNGQGVYGVAPQAKLWAYKVLGDNGSGYSDDIAAAIRHVADEASRTGSKVVINMSLGSSAKDSLIASAVDYAYGKGVLIVAAAGNSGPGPNTIGYPGGWVNAVAVAALENVQQNGTYRVADFSSRGNPATAGDYIIQERDIEVSAPGASVESTWYTGGYNTISGTSMATPHVAGLAAKIWSANTSLSHSQLRTELQNRAKVYDIKGGIGAGTGDDYASGFGYPRVK
B3: S27K, S171N, S173P, G174R, S175P, F180Y, L184Y, Q198E, T297P: TY145 protease (SEQ ID NO 3) variant with these substitutions (protein, listed as Bacillus sp.)
chain: AVPSTQTPWGIKSIYNDQSITKTTGGKGIKVAVLDTGVYTSHLDLAGSAEQCKDFTQSNPLVDGSCTDRQGHGTHVAGTVLAHGGSNGQGVYGVAPQAKLWAYKVLGDNGSGYSDDIAAAIRHVADEASRTGSKVVINMSLGSSAKDSLIASAVDYAYGKGVLIVAAAGNNGPRPNTIGYPGGYVNAVAVAALENVQENGTYRVADFSSRGNPATAGDYIIQERDIEVSAPGASVESTWYTGGYNTISGTSMATPHVAGLAAKIWSANTSLSHSQLRTELQNRAKVYDIKGGIGAGPGDDYASGFGYPRVK
B4: S173P, S175P, F180Y, R224D: TY145 protease (SEQ ID NO 3) variant with these substitutions (protein, listed as Bacillus sp.)
chain: AVPSTQTPWGIKSIYNDQSITKTTGGSGIKVAVLDTGVYTSHLDLAGSAEQCKDFTQSNPLVDGSCTDRQGHGTHVAGTVLAHGGSNGQGVYGVAPQAKLWAYKVLGDNGSGYSDDIAAAIRHVADEASRTGSKVVINMSLGSSAKDSLIASAVDYAYGKGVLIVAAAGNSGPGPNTIGYPGGLVNAVAVAALENVQQNGTYRVADFSSRGNPATAGDYIIQEDDIEVSAPGASVESTWYTGGYNTISGTSMATPHVAGLAAKIWSANTSLSHSQLRTELQNRAKVYDIKGGIGAGTGDDYASGFGYPRVK
B5: S27K, S171N, S173P, G174R, S175P, F180Y, L184W, Q198E, T297P: TY145 protease (SEQ ID NO 3) variant with these substitutions (protein, listed as Bacillus sp.)
chain: AVPSTQTPWGIKSIYNDQSITKTTGGKGIKVAVLDTGVYTSHLDLAGSAEQCKDFTQSNPLVDGSCTDRQGHGTHVAGTVLAHGGSNGQGVYGVAPQAKLWAYKVLGDNGSGYSDDIAAAIRHVADEASRTGSKVVINMSLGSSAKDSLIASAVDYAYGKGVLIVAAAGNNGPRPNTIGYPGGWVNAVAVAALENVQENGTYRVADFSSRGNPATAGDYIIQERDIEVSAPGASVESTWYTGGYNTISGTSMATPHVAGLAAKIWSANTSLSHSQLRTELQNRAKVYDIKGGIGAGPGDDYASGFGYPRVK
B6: S27K, S173P, G174K, S175P, F180Y, L184F, Q198E, N199R, T297P: TY145 protease (SEQ ID NO 3) variant with these substitutions (protein, listed as Bacillus sp.)
chain: AVPSTQTPWGIKSIYNDQSITKTTGGKGIKVAVLDTGVYTSHLDLAGSAEQCKDFTQSNPLVDGSCTDRQGHGTHVAGTVLAHGGSNGQGVYGVAPQAKLWAYKVLGDNGSGYSDDIAAAIRHVADEASRTGSKVVINMSLGSSAKDSLIASAVDYAYGKGVLIVAAAGNSGPKPNTIGYPGGFVNAVAVAALENVQERGTYRVADFSSRGNPATAGDYIIQERDIEVSAPGASVESTWYTGGYNTISGTSMATPHVAGLAAKIWSANTSLSHSQLRTELQNRAKVYDIKGGIGAGPGDDYASGFGYPRVK
B7: S173P, S175P, F180Y, L184Y: TY145 protease (SEQ ID NO 3) variant with these substitutions (protein, listed as Bacillus sp.)
chain: AVPSTQTPWGIKSIYNDQSITKTTGGSGIKVAVLDTGVYTSHLDLAGSAEQCKDFTQSNPLVDGSCTDRQGHGTHVAGTVLAHGGSNGQGVYGVAPQAKLWAYKVLGDNGSGYSDDIAAAIRHVADEASRTGSKVVINMSLGSSAKDSLIASAVDYAYGKGVLIVAAAGNSGPGPNTIGYPGGYVNAVAVAALENVQQNGTYRVADFSSRGNPATAGDYIIQERDIEVSAPGASVESTWYTGGYNTISGTSMATPHVAGLAAKIWSANTSLSHSQLRTELQNRAKVYDIKGGIGAGTGDDYASGFGYPRVK
B8: S27K, S173P, G174K, S175P, F180Y, L184Y, Q198E, N199K, T297P: TY145 protease (SEQ ID NO 3) variant with these substitutions (protein, listed as Bacillus sp.)
chain: AVPSTQTPWGIKSIYNDQSITKTTGGKGIKVAVLDTGVYTSHLDLAGSAEQCKDFTQSNPLVDGSCTDRQGHGTHVAGTVLAHGGSNGQGVYGVAPQAKLWAYKVLGDNGSGYSDDIAAAIRHVADEASRTGSKVVINMSLGSSAKDSLIASAVDYAYGKGVLIVAAAGNSGPKPNTIGYPGGYVNAVAVAALENVQEKGTYRVADFSSRGNPATAGDYIIQERDIEVSAPGASVESTWYTGGYNTISGTSMATPHVAGLAAKIWSANTSLSHSQLRTELQNRAKVYDIKGGIGAGPGDDYASGFGYPRVK
B9: S173P, S175P, F180Y, L184D: TY145 protease (SEQ ID NO 3) variant with these substitutions (protein, listed as Bacillus sp.)
chain: AVPSTQTPWGIKSIYNDQSITKTTGGSGIKVAVLDTGVYTSHLDLAGSAEQCKDFTQSNPLVDGSCTDRQGHGTHVAGTVLAHGGSNGQGVYGVAPQAKLWAYKVLGDNGSGYSDDIAAAIRHVADEASRTGSKVVINMSLGSSAKDSLIASAVDYAYGKGVLIVAAAGNSGPGPNTIGYPGGDVNAVAVAALENVQQNGTYRVADFSSRGNPATAGDYIIQERDIEVSAPGASVESTWYTGGYNTISGTSMATPHVAGLAAKIWSANTSLSHSQLRTELQNRAKVYDIKGGIGAGTGDDYASGFGYPRVK
B10: S27K, S173P, G174K, S175P, F180Y, L184Y, Q197K, Q198E, T297P: TY145 protease (SEQ ID NO 3) variant with these substitutions (protein, listed as Bacillus sp.)
chain: AVPSTQTPWGIKSIYNDQSITKTTGGKGIKVAVLDTGVYTSHLDLAGSAEQCKDFTQSNPLVDGSCTDRQGHGTHVAGTVLAHGGSNGQGVYGVAPQAKLWAYKVLGDNGSGYSDDIAAAIRHVADEASRTGSKVVINMSLGSSAKDSLIASAVDYAYGKGVLIVAAAGNSGPKPNTIGYPGGYVNAVAVAALENVKENGTYRVADFSSRGNPATAGDYIIQERDIEVSAPGASVESTWYTGGYNTISGTSMATPHVAGLAAKIWSANTSLSHSQLRTELQNRAKVYDIKGGIGAGPGDDYASGFGYPRVK

Experiment: Determination of binding constants of inhibitor (NNIC) in Model B detergent, Suc-AAPF-pNA read-out
Type: biochemical
Settings: Ki of variant with the mutation relative to variant without the mutation, <1.0 beneficial
Procedure: Purified protease variants are pre-diluted to approximately 0.2 mg/ml in dilution buffer. 40 μl diluted protease is then mixed with 40 μl inhibitor solution (Z-Gly-Ala-NHCH(CH2C6H4pOH)C(OH)(SO3Na)—H, wherein Z is benzyloxycarbonyl) or 40 μl 4-FPBA solution in the well of a 96 well microtiter plate (Nunc F 96-MTP). […] After 10 min mixing of protease and inhibitor at room temperature, 30 μl of the mixture is transferred to a microtiter plate (Nunc U96 PP 0.5 ml) with 270 μl Model B detergent in the wells resulting in inhibitor concentrations of 0-30 μM and 4-FPBA concentrations of 0-6000 μM. Protease, inhibitor and detergent is mixed for 1 hour using magnetic bars for 1 hour at room temperature to reach equilibrium. Then 20 μl is transferred to a microtiter plate (Nunc F 96-MTP). 100 μl substrate solution is added and after 5 sec mixing absorbance at 405 nm is measured every 20 sec for 5 min on a SpectraMax Plus reader. Slope from linear regression of initial increase in absorbance at 405 nm is used for calculation of apparent binding constants.
It is assumed that protease and inhibitor react according to the equation: E+I ? EI
Where E is the protease, I is the inhibitor and EI is the protease-inhibitor complex. […] The concentration of enzyme-inhibitor in the detergent solution is then given by:
where Etot is the total protease concentration ([Etot]=[E]+[EI]), Itot is the total inhibitor concentration ([Itot]=[I]+[EI]), and Ki is the equilibrium binding constant for the reaction. The measured slopes V are given by:
where V0 is the slope without inhibitor added. To calculate apparent binding constant Ki least square fitting of measured slopes at various inhibitor concentrations to this equation is performed with Ki and V0 as variables.
The Ki for the parent protease and for each variant was calculated as described above
Having the Ki for each variant, it is possible to calculate the effect of a single mutation, if data are available for at least two variants that differ only by that mutation. In this case, the relative Ki for the mutation is calculated:
[formula] A lower Ki is desirable, as a satisfactory inhibition can be obtained at a lower inhibitor concentration, so beneficial mutations have a relative Ki<1.0 The following table show such relative Kimutation. Each row show: • a mutation (column 1: “Mutation”) • a protease variant (relative to SEQ ID NO: 2) that comprise the mutation from column 1 (column 2: “Variant with the mutation”) • another protease variant (relative to SEQ ID NO: 2), that differs from the one in column 2 only by not having the mutation in column 1 (column 3: “Variant without the mutation”) • Relative Kimutation for the mutation in column 1, in the context of the variant in column 3, measured in Model B detergent (column 4: “inhibitor binding in Model B”) • Relative Kimutation for the mutation in column 1, in the context of the variant in column 3, measured in Tris buffer at pH 8 (column 5: “inhibitor binding in Tris buffer pH 8”)
Ki were calculated as shown in Example 3. The Improvement Factor (IF) or Relative

Going from B1 to B2, the “Inhibitor-binding relative Kimutation, inhibitor binding in Model B” value (“Inhibitor-binding relative Kimutation” below) rises from 0.36 to 0.50.

Compared with B3, B4 is higher in “Inhibitor-binding relative Kimutation” value: 0.18 for the first, 0.36 for the second.

First: B5
Second: B6
The “Inhibitor-binding relative Kimutation” value of the first is higher: 0.57 for the first, 0.22 for the second.

Going from B7 to B8, the “Inhibitor-binding relative Kimutation” value falls from 0.24 to 0.21.

First: B9
Second: B10
The “Inhibitor-binding relative Kimutation” value of the first is higher: 0.37 for the first, 0.32 for the second.
